Experimental data from US20140087995A1 (published 2014).
Numbered stars: 1 amine (or outer) side, 2 acyl side, 3 side chain; on linkers, the order of the positions; unused ones are H or OH. Bridge positions count the residues as written; N and C are the ends. Side chains are listed from the residue outwards. Ends that are not written are not given here. * marks the point of attachment. C20 diacid = O=C(O)CCCCCCCCCCCCCCCCCCC(=O)*; γGlu = O=C(O)[C@H](CCC(=O)[*:2])N[*:1]; AEEA = NCCOCCOCC(=O)O

T1: human calcitonin receptor (human, UniProt P30988 25-474)
T1 construct: whole, on cells; Assayed as cell membranes of BHK tk'ts 13 cells stably transfected with the human calcitonin receptor (Assay VII); also called hCTR; hCT
T1 sequence (looked up): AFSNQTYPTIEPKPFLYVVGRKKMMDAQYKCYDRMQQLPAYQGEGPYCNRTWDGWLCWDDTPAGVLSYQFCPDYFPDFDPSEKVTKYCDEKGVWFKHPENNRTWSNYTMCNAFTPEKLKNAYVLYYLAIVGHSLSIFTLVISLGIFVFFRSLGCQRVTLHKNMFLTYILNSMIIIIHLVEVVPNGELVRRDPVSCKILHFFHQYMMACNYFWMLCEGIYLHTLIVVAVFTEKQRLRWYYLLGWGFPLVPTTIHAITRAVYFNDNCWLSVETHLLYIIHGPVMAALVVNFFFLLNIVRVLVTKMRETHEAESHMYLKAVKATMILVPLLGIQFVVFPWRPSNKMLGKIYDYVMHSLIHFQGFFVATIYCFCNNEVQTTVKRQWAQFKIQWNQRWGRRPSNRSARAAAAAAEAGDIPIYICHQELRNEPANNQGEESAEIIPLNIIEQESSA


Experiments:
[1] = biological target: T1, human calcitonin receptor; experiment: IC50 at hCTR divided by IC50 at hAmylin-R (SPA competition assays V and VII)
Procedure: The resulting pellet was resuspended, homogenized and centrifuged (20.000 rpm, 15 min) in a buffer containing 20 mM Na-HEPES and 0.1 mM EDTA (pH 7.4, buffer 2). The resulting pellet was resuspended in buffer 2 and protein concentration was measured (BCA protein Assay, Pierce). The homogenate was kept cold during the whole procedure. The membranes were kept at −80° C. until use. The assay was performed in a 384 well Optiplate (PerkinElmer) in a total volume of 40 ul. Membranes were mixed with SPA beads. Final concentration of membranes 35 ng/μL final and SPA beads was 0.05 mg/well. Test-compounds were dissolved in DMSO and further diluted in assay buffer (50 mM Hepes, pH 7.4, 1 mM CaCl2, 5 mM MgCl₂, 0.1% OA and 0.02% Tween20). […] The final mixture was incubated with shaking at 400 rpm for 120 min at 25° C. prior to centrifugation (1500 rpm, 10 min). Samples were analyzed on TopCounter™ (Packard). The IC₅₀ was calculated using (one site binding competition analysis) GraphPad Prism5 as a measure of receptor affinity.
Membranes were prepared in the following way; the cells were rinsed with PBS and incubated with Versene for approximately 5 min before harvesting. The cells were flushed with PBS and the cell-suspension was centrifuged for 5 min at 1000 rpm. Cells were homogenized (Ultrathurrax) in a buffer containing 20 mM Na-HEPES and 10 mM EDTA (pH 7.4) and centrifuged at 20.000 rpm for 15 min. The resulting pellet was resuspended, homogenized and centrifuged (20.000 rpm, 15 min) in a buffer containing 20 mM Na-HEPES and 0.1 mM EDTA (pH 7.4, buffer 2). The resulting pellet was resuspended in buffer 2 and protein concentration was measured (BCA protein Assay, Pierce). The homogenate was kept cold during the whole procedure. The membranes were kept at −80° C. until use. Assay was performed in a 384 well Optiplate (PerkinElmer) in a total volume of 40 ul. Membranes were mixed with SPA beads.

[2] = biological target: T1, human calcitonin receptor; experiment: SPA competition vs 125I-calcitonin, membranes of BHK cells with human calcitonin receptor (Assay VII)
Procedure: Membranes were prepared in the following way; the cells were rinsed with PBS and incubated with Versene for approximately 5 min before harvesting. The cells were flushed with PBS and the cell-suspension was centrifuged for 5 min at 1000 rpm. Cells were homogenized (Ultrathurrax) in a buffer containing 20 mM Na-HEPES and 10 mM EDTA (pH 7.4) and centrifuged at 20.000 rpm for 15 min. The resulting pellet was resuspended, homogenized and centrifuged (20.000 rpm, 15 min) in a buffer containing 20 mM Na-HEPES and 0.1 mM EDTA (pH 7.4, buffer 2). The resulting pellet was resuspended in buffer 2 and protein concentration was measured (BCA protein Assay, Pierce). The homogenate was kept cold during the whole procedure. The membranes were kept at −80° C. until use. Assay was performed in a 384 well Optiplate (PerkinElmer) in a total volume of 40 ul. Membranes were mixed with SPA beads. Final concentration of membranes 35 ng/μL final and Final concentration of SPA beads was 0.05 mg/well. Test-compounds were dissolved in DMSO and further diluted in assay buffer (50 mM Hepes, pH 7.4, 1 mM CaCl2, 5 mM MgCl₂, 0.1% OA and 0.02% Tween20). […] The final mixture was incubated for 120 min with shaking at 400 rpm at 25° C. prior to centrifugation (1500 rpm, 10 min). Samples were analyzed on TopCounter™ (Packard). The […] was calculated using (one site binding competition analysis) GraphPad Prism5 as a measure of receptor affinity.

Ratio hCT/hAmylin binding [1] | IC50 [2] [nM] | Binder
104 | 58.9 | K([AEEA-AEEA-γGlu-C20 diacid])CNTATCATQRLANFLRHSSPNFGAIPSSTNVGHNTY-NH2 (disulfide 2-7; N-terminus assumed; SMILES CC[C@H](C)[C@H](NC(=O)[C@H](C)NC(=O)CNC(=O)[C@H](Cc1ccccc1)NC(=O)[C@H](CC(N)=O)NC(=O)[C@@H]1CCCN1C(=O)[C@H](CO)NC(=O)[C@H](CO)NC(=O)[C@H](Cc1c[nH]cn1)NC(=O)[C@H](CCCNC(=N)N)NC(=O)[C@H](CC(C)C)NC(=O)[C@H](Cc1ccccc1)NC(=O)[C@H](CC(N)=O)NC(=O)[C@H](C)NC(=O)[C@H](CC(C)C)NC(=O)[C@H](CCCNC(=N)N)NC(=O)[C@H](CCC(N)=O)NC(=O)[C@@H](NC(=O)[C@H](C)NC(=O)[C@@H]1CSSC[C@H](NC(=O)[C@@H](N)CCCCNC(=O)COCCOCCNC(=O)COCCOCCNC(=O)CC[C@H](NC(=O)CCCCCCCCCCCCCCCCCCC(=O)O)C(=O)O)C(=O)N[C@@H](CC(N)=O)C(=O)N[C@@H]([C@@H](C)O)C(=O)N[C@@H](C)C(=O)N[C@@H]([C@@H](C)O)C(=O)N1)[C@@H](C)O)C(=O)N1CCC[C@H]1C(=O)N[C@@H](CO)C(=O)N[C@@H](CO)C(=O)N[C@H](C(=O)N[C@@H](CC(N)=O)C(=O)N[C@H](C(=O)NCC(=O)N[C@@H](Cc1c[nH]cn1)C(=O)N[C@@H](CC(N)=O)C(=O)N[C@H](C(=O)N[C@@H](Cc1ccc(O)cc1)C(N)=O)[C@@H](C)O)C(C)C)[C@@H](C)O, also called compound 97)
74.1 | 6.74 | K([AEEA-AEEA-γGlu-C20 diacid])CNTATCATQRLANFLRHSSPNFGAIPSSTNVGPNTY-NH2 (disulfide 2-7; N-terminus assumed; SMILES CC[C@H](C)[C@H](NC(=O)[C@H](C)NC(=O)CNC(=O)[C@H](Cc1ccccc1)NC(=O)[C@H](CC(N)=O)NC(=O)[C@@H]1CCCN1C(=O)[C@H](CO)NC(=O)[C@H](CO)NC(=O)[C@H](Cc1c[nH]cn1)NC(=O)[C@H](CCCNC(=N)N)NC(=O)[C@H](CC(C)C)NC(=O)[C@H](Cc1ccccc1)NC(=O)[C@H](CC(N)=O)NC(=O)[C@H](C)NC(=O)[C@H](CC(C)C)NC(=O)[C@H](CCCNC(=N)N)NC(=O)[C@H](CCC(N)=O)NC(=O)[C@@H](NC(=O)[C@H](C)NC(=O)[C@@H]1CSSC[C@H](NC(=O)[C@@H](N)CCCCNC(=O)COCCOCCNC(=O)COCCOCCNC(=O)CC[C@H](NC(=O)CCCCCCCCCCCCCCCCCCC(=O)O)C(=O)O)C(=O)N[C@@H](CC(N)=O)C(=O)N[C@@H]([C@@H](C)O)C(=O)N[C@@H](C)C(=O)N[C@@H]([C@@H](C)O)C(=O)N1)[C@@H](C)O)C(=O)N1CCC[C@H]1C(=O)N[C@@H](CO)C(=O)N[C@@H](CO)C(=O)N[C@H](C(=O)N[C@@H](CC(N)=O)C(=O)N[C@H](C(=O)NCC(=O)N1CCC[C@H]1C(=O)N[C@@H](CC(N)=O)C(=O)N[C@H](C(=O)N[C@@H](Cc1ccc(O)cc1)C(N)=O)[C@@H](C)O)C(C)C)[C@@H](C)O, also called compound 98)

Second part, the binder before the results:

Binder | Ratio hCT/hAmylin binding [1] | IC50 [2] [nM]
K([AEEA-AEEA-γGlu-C20 diacid])CNTATCATQRLANFLRHSSPNFGAIPSSTPVGSNTY-NH2 (disulfide 2-7; N-terminus assumed; SMILES CC[C@H](C)[C@H](NC(=O)[C@H](C)NC(=O)CNC(=O)[C@H](Cc1ccccc1)NC(=O)[C@H](CC(N)=O)NC(=O)[C@@H]1CCCN1C(=O)[C@H](CO)NC(=O)[C@H](CO)NC(=O)[C@H](Cc1c[nH]cn1)NC(=O)[C@H](CCCNC(=N)N)NC(=O)[C@H](CC(C)C)NC(=O)[C@H](Cc1ccccc1)NC(=O)[C@H](CC(N)=O)NC(=O)[C@H](C)NC(=O)[C@H](CC(C)C)NC(=O)[C@H](CCCNC(=N)N)NC(=O)[C@H](CCC(N)=O)NC(=O)[C@@H](NC(=O)[C@H](C)NC(=O)[C@@H]1CSSC[C@H](NC(=O)[C@@H](N)CCCCNC(=O)COCCOCCNC(=O)COCCOCCNC(=O)CC[C@H](NC(=O)CCCCCCCCCCCCCCCCCCC(=O)O)C(=O)O)C(=O)N[C@@H](CC(N)=O)C(=O)N[C@@H]([C@@H](C)O)C(=O)N[C@@H](C)C(=O)N[C@@H]([C@@H](C)O)C(=O)N1)[C@@H](C)O)C(=O)N1CCC[C@H]1C(=O)N[C@@H](CO)C(=O)N[C@@H](CO)C(=O)N[C@H](C(=O)N1CCC[C@H]1C(=O)N[C@H](C(=O)NCC(=O)N[C@@H](CO)C(=O)N[C@@H](CC(N)=O)C(=O)N[C@H](C(=O)N[C@@H](Cc1ccc(O)cc1)C(N)=O)[C@@H](C)O)C(C)C)[C@@H](C)O, also called compound 96) | 79.6 | 13.2
K([AEEA-γGlu-C20 diacid])CNTATCATQRLAAFLRHSSPNFGAIPSSTPVGSNTY-NH2 (disulfide 2-7; N-terminus assumed; SMILES CC[C@H](C)[C@H](NC(=O)[C@H](C)NC(=O)CNC(=O)[C@H](Cc1ccccc1)NC(=O)[C@H](CC(N)=O)NC(=O)[C@@H]1CCCN1C(=O)[C@H](CO)NC(=O)[C@H](CO)NC(=O)[C@H](Cc1c[nH]cn1)NC(=O)[C@H](CCCNC(=N)N)NC(=O)[C@H](CC(C)C)NC(=O)[C@H](Cc1ccccc1)NC(=O)[C@H](C)NC(=O)[C@H](C)NC(=O)[C@H](CC(C)C)NC(=O)[C@H](CCCNC(=N)N)NC(=O)[C@H](CCC(N)=O)NC(=O)[C@@H](NC(=O)[C@H](C)NC(=O)[C@@H]1CSSC[C@H](NC(=O)[C@@H](N)CCCCNC(=O)COCCOCCNC(=O)CC[C@H](NC(=O)CCCCCCCCCCCCCCCCCCC(=O)O)C(=O)O)C(=O)N[C@@H](CC(N)=O)C(=O)N[C@@H]([C@@H](C)O)C(=O)N[C@@H](C)C(=O)N[C@@H]([C@@H](C)O)C(=O)N1)[C@@H](C)O)C(=O)N1CCC[C@H]1C(=O)N[C@@H](CO)C(=O)N[C@@H](CO)C(=O)N[C@H](C(=O)N1CCC[C@H]1C(=O)N[C@H](C(=O)NCC(=O)N[C@@H](CO)C(=O)N[C@@H](CC(N)=O)C(=O)N[C@H](C(=O)N[C@@H](Cc1ccc(O)cc1)C(N)=O)[C@@H](C)O)C(C)C)[C@@H](C)O, also called compound 72) | 247 | 42.4
